The test addresses T1, rat Beclin1 BH3 domain and Coiled Coil domain (residues 100-266) (rat, UniProt Q91XJ1 100-266).
T1 construct: Beclin1, rat, BH3 domain and coiled coil domain, residues 100-266; Cloned in a modified pET32 vector with a human rhinovirus 3C protease site and without thioredoxin; source: E. coli BL21 (DE3), purified (HisTrap HP, 3C cleavage, Superdex 75)
Description: ITC; 200 μM Beclin1 injected (2 μl aliquots) into 200 μl of 20 μM Bcl2, 50 mM Tris pH 8.0, 150 mM NaCl, Auto-iTC200, without MA. As to conditions: both partners purified.

What is called Kd is the concentration at which binding is half-saturated. Read a high Kd as weaker binding.

T1 sequence (Q91XJ1 100-266): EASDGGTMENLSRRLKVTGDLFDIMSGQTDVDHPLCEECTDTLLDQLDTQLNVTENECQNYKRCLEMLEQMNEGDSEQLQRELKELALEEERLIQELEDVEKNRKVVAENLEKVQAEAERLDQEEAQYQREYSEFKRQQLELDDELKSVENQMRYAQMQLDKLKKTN

B1: BH3 motif containing region of rat Bcl2 (residues 1-156), un-tagged version (domain or fragment, UniProt P49950 1-156, looked up)
chain: MAQAGRTGYDNREIVMKYIHYKLSQRGYEWDTGDEDSAPLRAAPTPGIFSFQPESNRTPAVHRDTAARTSPLRPLVANAGPALSPVPPVVHLTLRRAGDDFSRRYRRDFAEMSSQLHLTPFTARGRFATVVEELFRDGVNWGRIVAFFEFGGVMCV
notes: Bcl2, rat, BH3 motif containing region, residues 1-156; Cloned as a GST fusion in a modified pET32 vector with a 3C protease site
Molecule B1 came in with a Kd of approximately 7.3 µM.

The record behind these values is article PMC5650360, “Maslinic acid promotes autophagy by disrupting the interaction between Bcl2 and Beclin1 in rat pheochromocytoma PC12 cells” (Oncotarget, 2017).
